Holding throughout (experiment): SEC
Assay [1] concerns the target DEBS3M5 KS0-AT R850A (Saccharopolyspora erythraea).
Assay [2] addresses DEBS3M5 KS0-AT R850K (Saccharopolyspora erythraea).
Assay [3] deals with DEBS3M5 KS0-AT A539S (Saccharopolyspora erythraea).
Assay [4] deals with RAPS3M14 KS0-AT didomain (rapamycin synthase module 14) (Streptomyces hygroscopicus).
Assay [5] addresses DEBS3M5 KS0-AT R850E (Saccharopolyspora erythraea).
Assay [6] addresses DEBS3M5 KS0-AT R850F (Saccharopolyspora erythraea).
For assay [7], the target named is DEBS3M5 KS0-AT A539E (Saccharopolyspora erythraea).
The target in assay [8] is DEBS3M5 KS0-AT R850S (Saccharopolyspora erythraea).
The target of assay [9] is PikAIIIM5 KS0-AT didomain (pikromycin synthase module 5) (Streptomyces venezuelae).
The target of assay [10] is DEBS3M5 KS0-AT didomain, wild type (6-deoxyerythronolide B synthase module 5, KS knockout) (Saccharopolyspora erythraea).
The target in assay [11] is DEBS3M5 KS0-AT A539F (Saccharopolyspora erythraea).
The target of assay [12] is DEBS3M5 KS0-AT A539D (Saccharopolyspora erythraea).
In assay [13] the target is Pks7 KS0-AT didomain (Saccharopolyspora erythraea).

“And” between values parts separate entries of the source, which are not always exact repeats. Identical values can stand only once.

Usually stoichiometry N stands for the number of molecules, sites or subunits per partner or assembly. Regarding “DEBS3M5 KS0-AT R850A (domain or fragment)”, the stoichiometry N in [1] was 4 and 2.

“DEBS3M5 KS0-AT R850K (domain or fragment)”: in assay [2], the stoichiometry N is 4 and 2.

For the substance “DEBS3M5 KS0-AT A539S (domain or fragment)”, the stoichiometry N in [3] was 4 and 2.

The substance “RAPS3M14 KS0-AT didomain (rapamycin synthase module 14) (domain or fragment)” registered a stoichiometry N in assay [4] of 4.

Turning to “DEBS3M5 KS0-AT R850E (domain or fragment)”, the stoichiometry N in [5] was 4 and 2.

As to “DEBS3M5 KS0-AT R850F (domain or fragment)”, the stoichiometry N in assay [6] was 4 and 2.

Regarding “DEBS3M5 KS0-AT A539E (domain or fragment)”, the stoichiometry N in assay [7] was 4 and 2.

In the case of “DEBS3M5 KS0-AT R850S (domain or fragment)”, the stoichiometry N in assay [8] was 4 and 2.

In the case of “PikAIIIM5 KS0-AT didomain (pikromycin synthase module 5) (domain or fragment)”, the stoichiometry N in assay [9] was 2.

On to “DEBS3M5 KS0-AT didomain, wild type (6-deoxyerythronolide B synthase module 5, KS knockout) (domain or fragment)”, for which the stoichiometry N in assay [10] was 4 and 2.

“DEBS3M5 KS0-AT A539F (domain or fragment)”: the stoichiometry N in assay [11] was 4 and 2.

On to “DEBS3M5 KS0-AT A539D (domain or fragment)”, for which the stoichiometry N in assay [12] is 4 and 2.

Turning to “Pks7 KS0-AT didomain (domain or fragment)”, the stoichiometry N in assay [13] was 2.

The record behind these values is paper doi:10.1101/2020.12.29.424742.
